Test results: IntAct's records for PubMed 25616961

B1: Heterogeneous nuclear ribonucleoprotein A1 (Homo sapiens), P09651-2 (parent)
chain: MSKSESPKEPEQLRKLFIGGLSFETTDESLRSHFEQWGTLTDCVVMRDPNTKRSRGFGFVTYATVEEVDAAMNARPHKVDGRVVEPKRAVSREDSQRPGAHLTVKKIFVGGIKEDTEEHHLRDYFEQYGKIEVIEIMTDRGSGKKRGFAFVTFDDHDSVDKIVIQKYHTVNGHNCEVRKALSKQEMASASSSQRGRSGSGNFGGGRGGGFGGNDNFGRGGNFSGRGGFGGSRGGGGYGGSGDGYNGFGNDGSNFGGGGSYNDFGNYNNQSSNFGPMKGGNFGGRSSGPYGGGGQYFAKPRNQGGYGGSSSSSSYGSGRRF

Variants of: B1
Conditions: with ubql2_human UBQLN2, Q9UHD9
Chain of ubql2_human UBQLN2, Q9UHD9 (Q9UHD9 whole entry): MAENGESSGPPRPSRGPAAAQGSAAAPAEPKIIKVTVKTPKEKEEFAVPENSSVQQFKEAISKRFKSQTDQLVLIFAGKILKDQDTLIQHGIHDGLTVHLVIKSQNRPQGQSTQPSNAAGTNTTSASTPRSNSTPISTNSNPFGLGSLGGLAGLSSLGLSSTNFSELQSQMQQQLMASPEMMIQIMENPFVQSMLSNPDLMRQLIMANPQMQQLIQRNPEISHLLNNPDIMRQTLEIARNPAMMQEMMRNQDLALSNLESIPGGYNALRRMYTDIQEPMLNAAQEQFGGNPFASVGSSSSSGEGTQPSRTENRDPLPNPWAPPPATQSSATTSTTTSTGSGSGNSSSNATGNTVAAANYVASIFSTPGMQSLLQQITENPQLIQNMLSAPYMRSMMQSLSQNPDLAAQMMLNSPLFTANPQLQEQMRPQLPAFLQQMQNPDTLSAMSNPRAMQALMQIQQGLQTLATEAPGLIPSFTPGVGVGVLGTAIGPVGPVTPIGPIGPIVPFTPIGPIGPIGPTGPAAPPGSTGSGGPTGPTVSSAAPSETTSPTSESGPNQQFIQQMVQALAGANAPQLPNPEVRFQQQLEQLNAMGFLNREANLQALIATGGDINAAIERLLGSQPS

| Variant | effect of a mutation on the interaction |
| --- | --- |
| D262V | decreasing interaction |
